These results are taken from publication PMC9943647, “Structures of pMV158 replication initiator RepB with and without DNA reveal a flexible dual-function protein” (Nucleic Acids Research, 2023).

Data set [1] deals with T1, RepB OBD (origin binding domain), wt (Streptococcus plasmid pMV158, UniProt P13921 1-131).
T1 sequence: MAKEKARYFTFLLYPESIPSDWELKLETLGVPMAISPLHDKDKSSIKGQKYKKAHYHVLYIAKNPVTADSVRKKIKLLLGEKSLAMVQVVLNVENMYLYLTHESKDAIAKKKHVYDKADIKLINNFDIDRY
Description: SPR; HBS-EP pH 7.4, 150 mM NaCl; specific DNA is 1DDR in text, DDRC in Fig 3; EMSA: 20 mM Tris-HCl pH 8.0, 5 mM DTT, 300 mM NaCl, 20 nM DNA, 20 min 25 C; footprinting same buffer; SPR: 10 mM HEPES pH 7.4, 150 mM NaCl, 3 mM EDTA, 0.005% P20. As to conditions: protein: recombinant; tags: none; label: 5'-Cy5 (top) for EMSA; 5'-biotin for SPR; blunt. On the technique in general: Surface plasmon resonance follows binding to a sensor surface in real time, without labels.

In data set [2] the target is T1, RepB OBD (origin binding domain), wt. Description: EMSA; complex half-life <10 s; EMSA: 20 mM Tris-HCl pH 8.0, 5 mM DTT, 300 mM NaCl, 20 nM DNA, 20 min 25 C; footprinting same buffer; SPR: 10 mM HEPES pH 7.4, 150 mM NaCl, 3 mM EDTA, 0.005% P20. To be noted: protein: recombinant; tags: none; label: 5'-Cy5 (top) for EMSA; 5'-biotin for SPR; blunt.
For data set [3] the target is unchanged. Description: SPR; HBS-EP pH 7.4, 150 mM NaCl; Results text names 1DDR, but Methods, Table S1 and Fig 3 legend name DDRC; EMSA: 20 mM Tris-HCl pH 8.0, 5 mM DTT, 300 mM NaCl, 20 nM DNA, 20 min 25 C; footprinting same buffer; SPR: 10 mM HEPES pH 7.4, 150 mM NaCl, 3 mM EDTA, 0.005% P20. As to conditions: protein: recombinant; tags: none; label: 5'-Cy5 (top) for EMSA; 5'-biotin for SPR; blunt.

Data set [4] deals with the molecule itself. Description: crystal structure; full-length RepB without DNA; hanging drop, 100 mM Na/K phosphate pH 6.2, 200 mM NaCl, 10% PEG 8000; space group P21, 2.77 A.
Data set [5] deals with T1, RepB OBD (origin binding domain), wt. The data set can be described thus: EMSA; EMSA: 20 mM Tris-HCl pH 8.0, 5 mM DTT, 300 mM NaCl, 20 nM DNA, 20 min 25 C; footprinting same buffer; SPR: 10 mM HEPES pH 7.4, 150 mM NaCl, 3 mM EDTA, 0.005% P20. To be noted: protein: recombinant; tags: none; label: 5'-Cy5 (top); blunt.
For data set [6] the target is unchanged. Description: EMSA; per DDR site, independent binding, complexes C1-C3; Kd ~0.8 uM; EMSA: 20 mM Tris-HCl pH 8.0, 5 mM DTT, 300 mM NaCl, 20 nM DNA, 20 min 25 C; footprinting same buffer; SPR: 10 mM HEPES pH 7.4, 150 mM NaCl, 3 mM EDTA, 0.005% P20. To be noted: protein: recombinant; tags: none; label: 5'-Cy5 (top) for EMSA; 32P at both 5' ends for footprinting; blunt.

In data set [7] the target is OBD K76A (Streptococcus plasmid pMV158, UniProt P13921 1-131, K76A). The data set can be described thus: EMSA; EMSA: 20 mM Tris-HCl pH 8.0, 5 mM DTT, 300 mM NaCl, 20 nM DNA, 20 min 25 C; footprinting same buffer; SPR: 10 mM HEPES pH 7.4, 150 mM NaCl, 3 mM EDTA, 0.005% P20. To be noted: protein: recombinant; label: 5'-Cy5 (top); blunt. In general terms: In EMSA bound probe runs differently from free probe, usually more slowly.

Data set [8] deals with OBD R72A (Streptococcus plasmid pMV158, UniProt P13921 1-131, R72A). The description is as above. To be noted: protein: recombinant; label: 5'-Cy5 (top); blunt.
Data set [9] has as its target OBD quadruple mutant (Streptococcus plasmid pMV158, UniProt P13921 1-131, R72A;K73A;K74A;K76A). Described as above. As to conditions: protein: recombinant; label: 5'-Cy5 (top); blunt.
Data set [10] addresses OBD triple mutant (Streptococcus plasmid pMV158, UniProt P13921 1-131, K3A;E4A;K5A). The data set is described as above. As to conditions: protein: recombinant; label: 5'-Cy5 (top); blunt.
Data set [11] addresses OBD K5A (Streptococcus plasmid pMV158, UniProt P13921 1-131, K5A). The data set is described as above. To be noted: protein: recombinant; label: 5'-Cy5 (top); blunt.
Data set [12] deals with OBD E4A (Streptococcus plasmid pMV158, UniProt P13921 1-131, E4A). Described as above. As to conditions: protein: recombinant; label: 5'-Cy5 (top); blunt.

B1: NS (dsDNA)
DNA 1: CGGGTCGGTAATTGGGTTT
DNA 2: AAACCCAATTACCGACCCG
For B1, in [1], the binding signal was ~15 fold lower affinity than specific DNA.

B2: DDRC (dsDNA)
DNA 1: CTTTTCGGCGACTTTTCGG
DNA 2: CCGAAAAGTCGCCGAAAAG
Turning to B2, the Kd – broadly, a measure of binding affinity in units of concentration – in data set [2] is approximately 1000 nM; in data set [3], 220 ± 10 nM.

B3: RepB, replication initiation protein of plasmid pMV158 (full-length hexamer) (natural protein, streptococcal plasmid pMV158, UniProt P13921 1-210, looked up)
chain: MAKEKARYFTFLLYPESIPSDWELKLETLGVPMAISPLHDKDKSSIKGQKYKKAHYHVLYIAKNPVTADSVRKKIKLLLGEKSLAMVQVVLNVENMYLYLTHESKDAIAKKKHVYDKADIKLINNFDIDRYVTLDVEEKTELFNVVVSLIRAYTLQNIFDLYDFIDENGETYGLTINLVNEVIAGKTGFMKLLFDGAYQRSKRGTKNEER
notes: RepB, replication initiator (HUH endonuclease) of the streptococcal plasmid pMV158; Crystallised without DNA; a phosphate sits in each active site instead of Mn2+; also called RepB6; full-length RepB
For the molecule B3, the stoichiometry N (as a rule, the number of molecules, sites or subunits per partner or assembly) in data set [4] was 6.

B4: DDRR (dsDNA)
DNA 1: CTTTTCGGCGACTTTTTAG
DNA 2: CTAAAAAGTCGCCGAAAAG
Turning to B4, in data set [5], the Kd was approximately 1000 nM.

B5: DDRL (dsDNA)
DNA 1: AATCTCGGCGACTTTTCGG
DNA 2: CCGAAAAGTCGCCGAGATT
In the case of B5, the Kd in data set [5] is approximately 1000 nM.

B6: 3DDR (dsDNA)
DNA 1: AATCTCGGCGACTTTTCGGCGACTTTTCGGCGACTTTTTAGA
DNA 2: TCTAAAAAGTCGCCGAAAAGTCGCCGAAAAGTCGCCGAGATT
Consider B6, for which the Ka in data set [6] turned out to be 1.2 ± 0.4 µM⁻¹.

B7: 1DDR (dsDNA)
DNA 1: AATCTCGGCGACTTTTTAGA
DNA 2: TCTAAAAAGTCGCCGAGATT
Regarding B7, the Kd in [7] stood at 5500 ± 700 nM; in [8], 1700 ± 200 nM; in data set [5], 1100 ± 100 nM; in [10], 1100 ± 100 nM; in [11], 1800 ± 200 nM; in [12], 600 ± 100 nM. The binding result in data set [9] is given as “no binding”.
